Laboratory results as given in publication PMC3716775, “Interaction between Trehalose and MTHase from Sulfolobus solfataricus Studied by Theoretical Computation and Site-Directed Mutagenesis” (PLoS ONE, 2013).
Residue numbers refer to the chain shown, from its start. Numbers in names are those of the source.

B1: MTHase (maltooligosyltrehalose trehalohydrolase) from S. solfataricus ATCC 35092 (Saccharolobus solfataricus P2) (protein)
chain: MTFGYKLDEDGVTFNLWAPYQRKVKLKILNRGIYEMERDDKGYFTITLDNVRVGDRYKYILDDNSEVPDPASRYQPEGVHGYSEIISPDFEWDDENSVKVKREDLVIYELHIGTFTSEGTFEGVIKKLNYLKELGVTAIEIMPIAQFPGKKDWGYDGVYLYAVQNSYGGPSGFRKLVNEAHKLGLAVILDVVYNHVGPEGNYMVKLGPYFSEKYKTPWGLTFNFDDAGSDEVRKFILENVEYWINEFHVDGFRLDAVHAIIDNSPKHILEDIADVVHKYDKIVIAESDLNDPRVVNPKEKCGYNIDAQWVDDFHHAIHAFLTGERQGYYSDFGSIGDIVKSYKDVFIYDGKYSNFRRKTHGKSVGDLDGCKFVVYIQNHDQVGNRGGGERLIKLVDKESYKIAAALYILSPYIPMIFMGEEYGEENPFYYFSDFSDPKLIQGVREGRRRENGQETDPQSDCTFNDSKLSWKINDDILSFYKSLIKIRKEYGLACNRKLSVENGNYWLTVKGNGCLAVYVFSKSVIEMKYSGTLVLSSNSSFPSQITESKYELDKGFALYKL
notes: expressed from pET-15b-ΔH-treZ in E. coli BL21-CodonPlus (DE3)-RIL; heat treatment 80 °C, Q-Sepharose; docking model was the KM1 enzyme (PDB 1EH9), not the assayed protein
B2: MTHase (maltooligosyltrehalose trehalohydrolase) from S. solfataricus ATCC 35092 (Saccharolobus solfataricus P2; H195A) (protein)
chain: B1 chain with H195A
notes: as for B1
B3: MTHase (maltooligosyltrehalose trehalohydrolase) from S. solfataricus ATCC 35092 (Saccharolobus solfataricus P2; Y155A) (protein)
chain: B1 chain with Y155A
notes: as for B1
B4: MTHase (maltooligosyltrehalose trehalohydrolase) from S. solfataricus ATCC 35092 (Saccharolobus solfataricus P2; Y155F) (protein)
chain: B1 chain with Y155F
notes: as for B1
B5: MTHase (maltooligosyltrehalose trehalohydrolase) from S. solfataricus ATCC 35092 (Saccharolobus solfataricus P2; R447A) (protein)
chain: B1 chain with R447A
notes: as for B1
B6: MTHase (maltooligosyltrehalose trehalohydrolase) from S. solfataricus ATCC 35092 (Saccharolobus solfataricus P2; D156A) (protein)
chain: B1 chain with D156A
notes: as for B1
B7: MTHase (maltooligosyltrehalose trehalohydrolase) from S. solfataricus ATCC 35092 (Saccharolobus solfataricus P2; E450A) (protein)
chain: B1 chain with E450A
notes: as for B1

These proteins were tested on OC[C@H]1O[C@H](O[C@H]2O[C@H](CO)[C@@H](O[C@H]3O[C@H](CO)[C@@H](O[C@H]4O[C@H](CO)[C@@H](O[C@H]5O[C@H](CO)[C@@H](O)[C@H](O)[C@H]5O)[C@H](O)[C@H]4O)[C@H](O)[C@H]3O)[C@H](O)[C@H]2O)[C@H](O)[C@@H](O)[C@@H]1O (assay: initial rates of G3T hydrolysis, Michaelis-Menten fit). Details: 50 mM citrate-phosphate pH 5, 60 °C.
Type: biochemical, Saccharolobus solfataricus
Source text: initial rates of […] hydrolysis, Michaelis-Menten fit on […] (maltooligosyltrehalose trehalohydrolase) from S. solfataricus ATCC 35092

B1 and B2 are within 1.5-fold of each other in Km: 5.22 ± 0.59 mM for the first, 4.18 ± 0.31 mM for the second.

First: B3
Second: B4
The Km of the first is 7.8-fold higher: 39.2 ± 2.8 mM for the first, 5.02 ± 0.34 mM for the second.

B5 and B6 are within error of each other in Km: 10.7 ± 1.3 mM for the first, 12.9 ± 2.3 mM for the second.

B7 was tested, and the Km was 7.48 ± 0.70 mM.

Going from B1 to B2, the kcat falls from 947 ± 40 s⁻¹ to 2.15 ± 0.05 s⁻¹ (440-fold).

First: B3
Second: B4
The kcat of the first is 1.6-fold higher: 44.8 ± 1.7 s⁻¹ for the first, 27.8 ± 0.7 s⁻¹ for the second.

First: B5
Second: B6
The kcat of the first is 2-fold lower: 303 ± 16 s⁻¹ for the first, 608 ± 62 s⁻¹ for the second.

B7 was tested, and the kcat was 1070 ± 50 s⁻¹.

First: B1
Second: B2
The kcat/Km of the first is 360-fold higher: 182000 ± 14000 M⁻¹ s⁻¹ for the first, 510 ± 30 M⁻¹ s⁻¹ for the second.

Compared with B3, B4 is 4.9-fold higher in kcat/Km: 1140 ± 40 M⁻¹ s⁻¹ for the first, 5540 ± 250 M⁻¹ s⁻¹ for the second.

Going from B5 to B6, the kcat/Km rises from 28200 ± 2000 M⁻¹ s⁻¹ to 47300 ± 3700 M⁻¹ s⁻¹ (1.7-fold).

Work on B7 yielded a kcat/Km of 144000 ± 8000 M⁻¹ s⁻¹.
